Measured values: article PMC10520331, “Novel exported fusion enzymes with chorismate mutase and cyclohexadienyl dehydratase activity: Shikimate pathway enzymes teamed up in no man's land” (The Journal of Biological Chemistry, 2023)

Key:
[1] = tested on: C=C(O[C@@H]1C=C(C(=O)O)C=C[C@H]1O)C(=O)O; test: purified protein; details: PBS pH 7.5, 30 °C, CM site, lowest substrate 2.5 μM (Km near or below this is less reliable)
[2] = tested on: O=C(O)C(=O)CC1(C(=O)O)C=CC(O)C=C1; test: purified protein; details: PBS pH 7.5, 30 °C, CDT site
[3] = tested on: T1, C=C(O[C@@H]1C=C(C(=O)O)C=C[C@H]1O)C(=O)O; test: discontinuous CM assay, phenylpyruvate enolate A320; assay type: biochemical, Steroidobacter cummioxidans; details: PBS pH 7.5, 30 °C, CM site
T1 construct: fusion enzyme, CM N-terminal to CDT; without signal peptide, C-terminal His-tag; E. coli KA29; monomer
Description: discontinuous CM assay, phenylpyruvate enolate A320 on ∗ScCMCDT

[4] = tested on: T2, O=C(O)C(=O)CC1(C(=O)O)C=CC(O)C=C1; test: discontinuous CDT assay, phenylpyruvate enolate A320; assay type: biochemical, Steroidobacter cummioxidans; details: PBS pH 7.5, 30 °C, CDT site
T2 construct: fusion enzyme, CM N-terminal to CDT; without signal peptide, C-terminal His-tag; E. coli KA29; monomer
Description: discontinuous CDT assay, phenylpyruvate enolate A320 on ∗ScCMCDT

[5] = substrate: O=C(O)C(=O)CC1(C(=O)O)C=CC(O)C=C1; test: as above; assay type: biochemical, Janthinobacterium sp. HH01; details: PBS pH 7.5, 30 °C, CDT site
Description: discontinuous CDT assay, phenylpyruvate enolate A320 on ∗JbCDTCM

[6] = substrate: C=C(O[C@@H]1C=C(C(=O)O)C=C[C@H]1O)C(=O)O; test: discontinuous CM assay, phenylpyruvate enolate A320; assay type: biochemical, Janthinobacterium sp. HH01; details: PBS pH 7.5, 30 °C, CM site, lowest substrate 2.5 μM (Km near or below this is less reliable)
Description: discontinuous CM assay, phenylpyruvate enolate A320 on ∗JbCDTCM

[7] = substrate: C=C(O[C@@H]1C=C(C(=O)O)C=C[C@H]1O)C(=O)O; test: as above; assay type: biochemical, Janthinobacterium sp. HH01; details: PBS pH 7.5, 30 °C, lowest substrate 2.5 μM (Km near or below this is less reliable)
Description: discontinuous CM assay, phenylpyruvate enolate […] on ∗JbCM

[8] = substrate: O=C(O)C(=O)CC1(C(=O)O)C=CC(O)C=C1; test: discontinuous CDT assay, phenylpyruvate enolate A320; assay type: biochemical, Shewanella baltica; details: PBS pH 7.5, 30 °C, CDT site, lowest substrate 2.5 μM (Km near or below this is less reliable)
Description: discontinuous CDT assay, phenylpyruvate enolate A320 on ∗SbCMCDT

[9] = substrate: C=C(O[C@@H]1C=C(C(=O)O)C=C[C@H]1O)C(=O)O; test: discontinuous CM assay, phenylpyruvate enolate A320; assay type: biochemical, Shewanella baltica; details: PBS pH 7.5, 30 °C, CM site, lowest substrate 2.5 μM (Km near or below this is less reliable)
Description: discontinuous CM assay, phenylpyruvate enolate A320 on ∗SbCMCDT

[10] = CM-site knock-out, lowest substrate 2.5 μM (Km near or below this is less reliable)

Work on ∗DsCDTCM (Duganella sacchari) yielded a Km [1] of 3.0 ± 0.8 µM, a kcat [1] of 19.5 ± 0.2 s⁻¹ and a kcat/Km [1] of 6.8e+06 ± 1.9e+06 M⁻¹ s⁻¹. For the same molecule, the Km [2] was 14.6 ± 3.1 µM, the kcat [2] was 24.9 ± 2.0 s⁻¹ and the kcat/Km [2] was 1.8e+06 ± 500000 M⁻¹ s⁻¹.

∗MpCDTCM (Massilia phosphatilytica) showed a Km [1] of 3.2 ± 0.0 µM, a kcat [1] of 26.3 ± 1.4 s⁻¹ and a kcat/Km [1] of 8.3e+06 ± 400000 M⁻¹ s⁻¹. The Km [2] was 18.1 ± 1.7 µM, the kcat [2] was 41.8 ± 3.5 s⁻¹ and the kcat/Km [2] was 2.3e+06 M⁻¹ s⁻¹.

∗ScCMCDT (Steroidobacter cummioxidans) was tested, and the Km [3] was 6.3 ± 3.9 µM, the kcat [3] was 6.8 ± 0.7 s⁻¹ and the Km [4] was 16.6 ± 2.5 µM. The kcat [4] was 32.0 ± 8.4 s⁻¹ and the kcat/Km [4] was 1.9e+06 ± 200000 M⁻¹ s⁻¹.

B1: ∗JbCDTCM (Janthinobacterium sp. HH01) (protein)
chain: DHRLDDITARGVLRVGTTGDYKPFSSRAGNDFVGLDIELAADLARTLGVPVQIVPTSWPTLMKDFGDGKFDIALGGVSITPERQKQGLFSVSYLRDGKTPITRCENSARFQTLAQIDQPGVRLVVNPGGTNERFARSQAPNAQLTVYPDNVTIFDQIVTGAADLMITDAIETRLQQRLRPQLCAVHPDTPFDFAEKAILLPRDVAFKAVVDKWLQQRIASGAVQRSVDRWLDFPWGLEPLRLAIDQRLLLAQAVARAKWNVQAPIEDLGREAQVIQAAVKEGAALGLPKVWIETVFRAQIEASKTVQRELFAQWSAQQAGKFDDAPDLAKTIRPELDRLTTQLLRSMASNQTVLNDEARKADVARAMRALEARALSPQAATQALAPFF
notes: fusion enzyme, CDT N-terminal to CM; without signal peptide, C-terminal His-tag; E. coli KA29; monomer
B1 showed a Km [5] of 7.3 ± 2.0 µM, a kcat [5] of 13.0 ± 1.3 s⁻¹ and a kcat/Km [5] of 1.8e+06 ± 300000 M⁻¹ s⁻¹. It also gave a Km [6] of 3.0 ± 0.1 µM, a kcat [6] of 17.1 ± 0.9 s⁻¹ and a kcat/Km [6] of 5.7e+06 ± 100000 M⁻¹ s⁻¹.

B2: ∗JbCDTCM (Janthinobacterium sp. HH01; K287A) (protein)
chain: DHRLDDITARGVLRVGTTGDYKPFSSRAGNDFVGLDIELAADLARTLGVPVQIVPTSWPTLMKDFGDGKFDIALGGVSITPERQKQGLFSVSYLRDGKTPITRCENSARFQTLAQIDQPGVRLVVNPGGTNERFARSQAPNAQLTVYPDNVTIFDQIVTGAADLMITDAIETRLQQRLRPQLCAVHPDTPFDFAEKAILLPRDVAFKAVVDKWLQQRIASGAVQRSVDRWLDFPWGLEPLRLAIDQRLLLAQAVARAAWNVQAPIEDLGREAQVIQAAVKEGAALGLPKVWIETVFRAQIEASKTVQRELFAQWSAQQAGKFDDAPDLAKTIRPELDRLTTQLLRSMASNQTVLNDEARKADVARAMRALEARALSPQAATQALAPFF
notes: as for B1
B2 gave a Km [5, 10] of 4.2 ± 0.4 µM, a kcat [5, 10] of 13.9 ± 0.3 s⁻¹ and a kcat/Km [5, 10] of 3.3e+06 ± 200000 M⁻¹ s⁻¹.

B3: ∗JbCDTCM (Janthinobacterium sp. HH01; E200Q) (protein)
chain: DHRLDDITARGVLRVGTTGDYKPFSSRAGNDFVGLDIELAADLARTLGVPVQIVPTSWPTLMKDFGDGKFDIALGGVSITPERQKQGLFSVSYLRDGKTPITRCENSARFQTLAQIDQPGVRLVVNPGGTNERFARSQAPNAQLTVYPDNVTIFDQIVTGAADLMITDAIQTRLQQRLRPQLCAVHPDTPFDFAEKAILLPRDVAFKAVVDKWLQQRIASGAVQRSVDRWLDFPWGLEPLRLAIDQRLLLAQAVARAKWNVQAPIEDLGREAQVIQAAVKEGAALGLPKVWIETVFRAQIEASKTVQRELFAQWSAQQAGKFDDAPDLAKTIRPELDRLTTQLLRSMASNQTVLNDEARKADVARAMRALEARALSPQAATQALAPFF
notes: as for B1
Molecule B3 has a Km ([6]; CDT-site knock-out) of 2.4 ± 1.3 µM, a kcat ([6]; CDT-site knock-out) of 15.6 ± 0.4 s⁻¹ and a kcat/Km ([6]; CDT-site knock-out) of 7.9e+06 ± 4.5e+06 M⁻¹ s⁻¹.

B4: ∗JbCM (Janthinobacterium sp. HH01) (protein)
chain: GLEPLRLAIDQRLLLAQAVARAKWNVQAPIEDLGREAQVIQAAVKEGAALGLPKVWIETVFRAQIEASKTVQRELFAQWSAQQAGKFDDAPDLAKTIRPELDRLTTQLLRSMASNQTVLNDEARKADVARAMRALEARALSPQAATQALAPFF
notes: split-off CM domain of JbCDTCM, starts at Gly238; C-terminal His-tag; E. coli KA29
For B4, the Km [7] was 2.2 ± 0.3 µM, the kcat [7] was 16.4 ± 1.5 s⁻¹ and the kcat/Km [7] was 7.6e+06 ± 1.7e+06 M⁻¹ s⁻¹.

B5: ∗SbCMCDT (Shewanella baltica OS155) (protein)
chain: DTDENAELYANMNTRLSYMQQVALYKWQHQLPIEDLAREKIVLAQSVTAAESLGITSVAITDFFQVQIELAKKIQRQYHQQWREHGLPQTLQTKQNTKLSLDKIRPALTTLGQTIIEQIAEHQDQHDFSVFNLAIDTPLVSIEDKAVLFRSLSLIKPKVYLSTLDKIIAEKILYVGTTGDYEPFSYFEAGQIKGIDIDLANRLADSLGAQAVFLPTSWSNLITDLSSERFDIMMSGISKQLFRQRVGLQSDIYLEDGKTPISLCAKKERYDSLAKIDKPDTRMIVNKGGTNQRFVDANIKQAKITVHSSNVTIFQELIANRADVMITDRVEVQLQTKKHTELCSTMPNNLNYSAKAFLMGRDPIWKEYVDAWLELSIKDGSVSNIFNHYI
notes: fusion enzyme, CM N-terminal to CDT; without signal peptide, C-terminal His-tag; E. coli KA29
B5 showed a Km [8] of 3.6 ± 1.1 µM, a kcat [8] of 12.2 ± 2.8 s⁻¹ and a kcat/Km [8] of 3.5e+06 ± 300000 M⁻¹ s⁻¹. It also gave a Km [9] of 3.2 ± 2.7 µM and a kcat [9] of 6.8 ± 0.1 s⁻¹.
